Target: APOBEC3B (A3B) WT (human, UniProt Q9UH17 1-382)
Experiment: EMSA with unlabeled self-competitor; binds ssDNA and ssRNA equally strongly; Competition EMSA: 25 mM HEPES pH 7.4, 50 mM NaCl, 0.4 U/ul RNase inhibitor, room temperature, 5 min binding plus 10 min with competitor; R-loop substrate EMSA:
Settings: protein: recombinant; tags: C-terminal mycHis; label: 5' IRDye800CW

APOBEC3B (A3B) WT, sequence (Q9UH17 whole entry): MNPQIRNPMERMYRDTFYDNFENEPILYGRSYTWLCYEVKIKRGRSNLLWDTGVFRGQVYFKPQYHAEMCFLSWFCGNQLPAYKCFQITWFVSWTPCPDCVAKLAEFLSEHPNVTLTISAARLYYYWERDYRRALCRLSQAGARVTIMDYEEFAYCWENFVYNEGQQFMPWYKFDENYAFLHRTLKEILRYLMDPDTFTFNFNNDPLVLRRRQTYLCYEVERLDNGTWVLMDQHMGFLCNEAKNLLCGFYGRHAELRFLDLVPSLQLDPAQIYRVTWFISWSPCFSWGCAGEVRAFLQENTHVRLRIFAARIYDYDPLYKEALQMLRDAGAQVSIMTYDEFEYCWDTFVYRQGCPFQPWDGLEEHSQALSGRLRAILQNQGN

Binder | binding result
AUUAGUCAUAUGGAU (ssRNA) [short 15-mer ssRNA (A3B RNA EMSA)] | binds
ATTAGTCATATGGAT (ssDNA) [short 15-mer ssDNA (A3B DNA EMSA)] | binds
